Assay results published in patent US20230111363A1 (LMMUNOMETABOLISM DEVELOPMENT, published 2023).
Residue numbers refer to the chain shown, from its start.

T1: human monocarboxylate transporter 1 (MCT1) (human, UniProt P53985 1-500)
T1 construct: Multi-pass transmembrane transporter, endogenous on HEK WT / HEK293T cells and on primary human T and B cells in the assays; also called human MCT1; SLC16A1
T1 sequence: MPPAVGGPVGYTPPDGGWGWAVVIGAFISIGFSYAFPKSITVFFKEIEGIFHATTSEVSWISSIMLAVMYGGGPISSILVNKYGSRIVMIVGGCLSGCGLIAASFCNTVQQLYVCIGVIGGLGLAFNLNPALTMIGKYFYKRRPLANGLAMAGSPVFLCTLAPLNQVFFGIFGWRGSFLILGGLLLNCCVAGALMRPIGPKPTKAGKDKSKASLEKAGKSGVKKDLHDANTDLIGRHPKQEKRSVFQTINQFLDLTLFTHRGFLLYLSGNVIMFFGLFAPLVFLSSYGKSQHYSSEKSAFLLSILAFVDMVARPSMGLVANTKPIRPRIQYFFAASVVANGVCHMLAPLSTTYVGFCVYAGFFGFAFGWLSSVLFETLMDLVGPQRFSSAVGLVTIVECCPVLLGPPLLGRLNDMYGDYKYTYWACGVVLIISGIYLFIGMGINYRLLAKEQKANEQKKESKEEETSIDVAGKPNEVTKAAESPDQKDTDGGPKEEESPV

B1: anti-human MCT1 antibody Ab1 (antibody, human IgG1, kappa, V domains shown)
VH: QVQLVQSGAEVKKPGASVKVSCTVSGFSLTNYHLQWVRQAPGQGLEWMGFIRSSGNTEYNSEFKSRVTMTRDTSTSTVYMELSSLRSEDTAVYYCARNSWYHGTYYSPGYYVMDAWGQGTLVTVSS
VL: EIVLTQSPGTLSLSPGERATLSCKGSQNINNYLAWYQQKPGQAPRLLIYNRHNLQTGIPDRFSGSGSGTDFTLTISRLEPEDFAVYYCYQYSDGYTFGGGTKVEIKR
notes: human IgG1 effector null (IgG1EN) backbone; also called humanized Framework antibody Ab1
B2: anti-human MCT1 antibody Ab11 (antibody, human IgG1, kappa, V domains shown)
VH: B1 VH with F27R, S99R, Y101H
VL: B1 VL with N30E
notes: IgG1EN backbone
B3: anti-human MCT1 antibody Ab17 (antibody, human IgG1, kappa, V domains shown)
VH: B1 VH with F27R, Y32I, S99R
VL: B1 VL with N30E
notes: IgG1EN backbone
B4: anti-human MCT1 antibody Ab9 (antibody, human IgG1, kappa, V domains shown)
VH: B1 VH with F27R, L34I, S99R
VL: B1 VL with N30E
notes: IgG1EN backbone
B5: anti-human MCT1 antibody Ab12 (antibody, human IgG1, kappa, V domains shown)
VH: B1 VH with F27R, Q35V, S99R
VL: B1 VL with N30E
notes: IgG1EN backbone
B6: anti-human MCT1 antibody Ab14 (antibody, human IgG1, kappa, V domains shown)
VH: B1 VH with F27R, S99R, A115P
VL: B1 VL with N30E
notes: IgG1EN backbone
B7: anti-human MCT1 antibody Ab15 (antibody, human IgG1, kappa, V domains shown)
VH: B1 VH with F27R, S99L
VL: B1 VL with N30E
notes: IgG1EN backbone
B8: anti-human MCT1 antibody Ab16 (antibody, human IgG1, kappa, V domains shown)
VH: B1 VH with V24R, F27R, S99R
VL: B1 VL with N30E
notes: IgG1EN backbone
B9: anti-human MCT1 antibody Ab13 (antibody, human IgG1, kappa, V domains shown)
VH: B1 VH with F27R, S99R, Y101R
VL: B1 VL with N30E
notes: IgG1EN backbone
B10: anti-human MCT1 antibody Ab21 (antibody, human IgG1, kappa, V domains shown)
VH: B1 VH with F27R, S99R, A115P
VL: B1 VL
notes: IgG1EN backbone
B11: anti-human MCT1 antibody Ab18 (antibody, human IgG1, kappa, V domains shown)
VH: B1 VH with F27R, Q35G, S99R
VL: B1 VL with N30E
notes: IgG1EN backbone
B12: anti-human MCT1 antibody Ab7 (antibody, human IgG1, kappa, V domains shown)
VH: B1 VH with F27R, L29R, S99R
VL: B1 VL with N30E
notes: IgG1EN backbone
B13: anti-human MCT1 antibody Ab19 (antibody, human IgG1, kappa, V domains shown)
VH: B1 VH with F27R, S53R, S99R
VL: B1 VL with N30E
notes: IgG1EN backbone
B14: anti-human MCT1 antibody Ab10 (antibody, human IgG1, kappa, V domains shown)
VH: B1 VH with F27R, N31G, S99R
VL: B1 VL with N30E
notes: IgG1EN backbone
B15: anti-human MCT1 antibody Ab8 (antibody, human IgG1, kappa, V domains shown)
VH: B1 VH with F27R, E58I, S99R
VL: B1 VL with N30E
notes: IgG1EN backbone
B16: anti-human MCT1 antibody Ab20 (antibody, human IgG1, kappa, V domains shown)
VH: B1 VH with F27R, S99L
VL: B1 VL
notes: IgG1EN backbone
B17: anti-human MCT1 antibody Ab2 (antibody, human IgG1, kappa, V domains shown)
VH: B1 VH
VL: DIQMTQSPSTLSASVGDRVTITCKGSQNINNYLAWYQQKPGKAPKLLIYNRHNLQTGVPSRFSGSGSGTEFTLTISSLQPDDFATYYCYQYSDGYTFGGGTKVEIKR
notes: IgG1EN backbone
B18: anti-human MCT1 antibody Ab3 (antibody, human IgG1, kappa, V domains shown)
VH: EVQLVESGGGLVQPGGSLRLSCTVSGFSLTNYHLQWVRQAPGKGLEWVGFIRSSGNTEYNSEFKSRFTISRDDSKNSLYLQMNSLKTEDTAVYYCARNSWYHGTYYSPGYYVMDAWGQGTLVTVSS
VL: B17 VL
notes: IgG1EN backbone
B19: anti-human MCT1 antibody Ab5 (antibody, human IgG1, kappa, V domains shown)
VH: EVQLVQSGAEVKKPGESLKISCTVSGFSLTNYHLQWVRQMPGKGLEWMGFIRSSGNTEYNSEFKSQVTISADKSISTAYLQWSSLKASDTAMYYCARNSWYHGTYYSPGYYVMDAWGQGTLVTVSS
VL: B17 VL with T10S, E70D, D81E
notes: IgG1EN backbone
B20: anti-human MCT1 antibody Ab4 (antibody, human IgG1, kappa, V domains shown)
VH: B18 VH with Q13K, S77T
VL: B17 VL with T10S, E70D, D81E
notes: IgG1EN backbone

What follows are binders tested against T1, human monocarboxylate transporter 1 … (assay: competition MSD binding assay, antibody titrated with HEK WT cells expressing MCT1, apparent KD, screening at 25 C).
Method: The mix was incubated at 37° C. for 1-2 days. After incubation, the incubated samples were spun down for 5 min at 500×g to remove cells. A 96-well multi-array plate (Meso Scale Diagnostics, Cat. #L15XA-3) was coated at 4° C. overnight with 1 μg/mL of goat anti human FC in phosphate buffered saline (PBS). Following coating, plates were washed 3 times with 150 μL PBST (PBS with 0.05% Tween 20) and blocked with 150 μL/well of PBS 3% blocker A buffer (Cat #R93BA-1) at 25° C. for 1 hr. Plates were then washed 3 times with PBST. 50 μL of the preincubated antibody: cell dilution series was transferred to the wells and incubated at 25° C. with 700 rpm shaking for 1 hr. Plates were washed 3 times with PBST. Then 100 μL of 1 μg/mL anti-human kappa-biotin antibody (Cat. #2060-08) was added, and plates were incubated at 25° C. with 700 rpm shaking […]. Plates were washed 3 times with PBST, followed by addition of 100 μL of 1 μg/mL MSD Sulfo-tag streptavidin antibody (Meso Scale Diagnostics Cat. #R32 AD1), and plates were incubated at 25° C. with 700 rpm shaking for 1 hr. Plates were washed 3 times with PBST, 150 μL/well of 1× Read Buffer T was added to the wells and analyzed on a SECTOR® Imager 6000 (Meso Scale Diagnostics) 15 min after buffer addition. The apparent KD is determined by fitting a sigmoidal curve to the electrochemiluminescence (ECL) response vs. log (MCT1 receptor concentration) using assay development tool kit graphed with normalized ECL values.

Kd | Binder
5.81 nM | B1
1.91 nM | B2
1.04 nM | B3
4.56 nM | B4
1.64 nM | B5
1.31 nM | B6
1.96 nM | B7
0.71 nM | B8
2.82 nM | B9
0.85 nM | B10
5.14 nM | B11
0.47 nM | B12
0.46 nM | B13
0.85 nM | B14
0.55 nM | B15
0.64 nM | B16

Each binder was assayed against T1, human monocarboxylate transporter 1 … (assay: cell-based MCT1 binding).

binding result | Binder
binds | B17
binds | B18
binds | B19
binds | B20

What follows are binders tested against T1, human monocarboxylate transporter 1 … (assay: cell-based or functional assay).

IC50 of inhibition of MCT1 mediated transport (bromopyruvate assay, HEK293T cells) | Binder
164 nM | B1
35 nM | B2
38 nM | B3
35 nM | B4
39 nM | B5
40 nM | B6
48 nM | B7
31 nM | B8
42 nM | B9
50 nM | B10
41 nM | B11
28 nM | B12
35 nM | B13
39 nM | B14
21 nM | B15
83 nM | B16

Target: T1, human monocarboxylate transporter 1 …
Experiment: cell-based or functional assay
Remark: another data set of the same source

IC50 of inhibition of CD4 T cell proliferation | IC50 of inhibition of CD8 T cell proliferation | Binder
59 nM | 42 nM | B1
4 nM | 5 nM | B2
5 nM | 2 nM | B3
4 nM | 5 nM | B4
4 nM | 5 nM | B5
5 nM | 6 nM | B6
5 nM | 8 nM | B7
5 nM | 3 nM | B8
3 nM | 4 nM | B9
6 nM | 4 nM | B10
6 nM | 2 nM | B11
2 nM | 4 nM | B12
5 nM | 3 nM | B13
3 nM | 7 nM | B14
3 nM | 3 nM | B15
13 nM | 6 nM | B16

Each binder was assayed against T1, human monocarboxylate transporter 1 … (assay: competition MSD binding assay, antibody titrated with HEK WT cells expressing MCT1, apparent KD, 37 C, average of triplicate).
From the text: Plates were then washed 3 times with PBST. […] Plates were washed 3 times with PBST.

Kd | Binder
1.23 nM | B1
